Residue numbers refer to the chain shown, from its start.

These results are taken from patent publication US20230139700A1 (BIO THERA SOLUTIONS, published 2023).

The labels stand for the following.
T1: hOX40-his (human, UniProt P43489 29-216)
T1 construct: range 1-216; Made in HEK293; The stated range starts at residue 1 (holds the signal peptide of the entry); no cleavage site stated; not shown: his tag
T1 sequence (looked up): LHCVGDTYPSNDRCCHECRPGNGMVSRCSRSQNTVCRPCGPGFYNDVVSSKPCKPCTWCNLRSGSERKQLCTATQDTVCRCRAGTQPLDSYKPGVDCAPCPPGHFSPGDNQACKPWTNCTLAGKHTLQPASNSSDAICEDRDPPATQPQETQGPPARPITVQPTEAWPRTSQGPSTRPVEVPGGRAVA

T2: hOX40-FC (human, UniProt P43489 29-216)
T2 construct: range 1-216; Made in HEK293; The stated range 1-216 starts at residue 1, so it holds the signal peptide of the entry; also called human OX40 extracellular region fused to human IgG1-Fc; not shown: human IgG1-Fc, UniProt P01857, residues 104 to 330
T2 sequence (looked up): T1 sequence (looked up)

B1: WEST + TD (antibody, human IgG1, kappa, V domains shown)
VH: QVQLEESGGGVVQPGESLRLSCAASGFTFSSYGMHWVRQAPGKGLEWVAVIWEDGSNQYYADSVKGRFTISRDNSKNTLYLQMNSLRAEDTAVYYCAKDNQDTSPDVGIDYWGQGTLVTVSS
VL: DIQMTQSPSSLSASVGDTVTITCRASQNISPFLNWYQQKPGKAPKLLIYAASSLQSGVPSRFSGSGSGTDFTLTISSLQPEDFATYYCQQYTDYPLTFGGGTKVEIKR
B2: T + VG (antibody, human IgG1, kappa, V domains shown)
VH: B1 VH with W52S, E53Y
VL: B1 VL with S52V, S53G, T92N, D93S
B3: T + TD (antibody, human IgG1, kappa, V domains shown)
VH: B1 VH with W52S, E53Y
VL: B1 VL
B4: VH + VGTD (antibody, human IgG1, kappa, V domains shown)
VH: B1 VH with W52S, E53Y, T103S
VL: B1 VL with S52V, S53G
B5: WEST + VL (antibody, human IgG1, kappa, V domains shown)
VH: B1 VH
VL: B1 VL with T92N, D93S
B6: WEST + VG (antibody, human IgG1, kappa, V domains shown)
VH: B1 VH
VL: B1 VL with S52V, S53G, T92N, D93S
B7: T + VGL + TD (antibody, human IgG1, kappa, V domains shown)
VH: B1 VH with W52S, E53Y
VL: B1 VL with S52V, S53G
B8: Antibody-X35-6L (antibody, human IgG1, kappa, V domains shown)
VH: EVQLVESGGGLVQPGRSLRLSCAASGFTFDDYAMHWVRQAPGRGLEWVSGIGGSGGSTYYADSVKGRFTISRDNSKNTLYLQMNGLGAEDTAVYYCAKDRGYGDYYWYFDLWGRGTLVTVSS
VL: SSELTQPASVSGSPGQSITISCTGTSSDVGGYNYVSWYQQHPGKAPKLMIYDVSNRPSGVSNRFSGSKSGNTASLTISGLQAEDEADYYCSSYTTSSTLVFGGGTKVTVLR
notes: also called antibody No. 2
B9: Antibody-FE-16H (antibody, human IgG1, kappa, V domains shown)
VH: QVQLVESGGGLVQPGGSLRLSCAASGFTFSSYAMSWVRQAPGKGLEWVSAISGSGGSTYYADSVKGRFTISRDNSKNSLYLQMNSLRAEDTAVYYCARGDSSSWFIFQDWGQGTLVTVSS
VL: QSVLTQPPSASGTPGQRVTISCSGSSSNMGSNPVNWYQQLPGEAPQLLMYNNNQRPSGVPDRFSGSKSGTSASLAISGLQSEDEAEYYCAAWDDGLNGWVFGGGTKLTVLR
notes: also called antibody No. 10
B10: Antibody-A2 (antibody, human IgG1, kappa, V domains shown)
VH: QVQLVESGGGLIQPGGSLRLSCAASGFTVSSNYMSWVRQAPGEGLEWIATIYYGGSTYYNPSLKSRVTISADMSKNQFSLKLSSMTAADTAVYYCARVVVPGYFDLWGRGTLVTVSS
VL: SSELTQDPAVSVALGQTVSITCQGDSLRSYYASWYQQKPGQAPVPVIYGKNNRPSGIPDRFSGSSSGNTASLTITGAQAEDEADYYCHSRDSSGKYVFGVGTKLTVLR
notes: also called antibody No. 11
B11: Antibody-F23-7k (antibody, human IgG1, kappa, V domains shown)
VH: B1 VH with W52S, E53Y, T103S
VL: B1 VL with T18R, N28S, P31S, F32Y, I48M, Q89L, Y91I, T92D, D93S
notes: also called antibody No. 5

One test concerns the target T1, hOX40-his. As to the kind of experiment: BIACORE, antibody on the probe, 20 nM OX40-his. The text has this:
Table 10 illustrates the CDRs of eight full antibodies containing these amino acid mutations, and the rest of the sequences are the same as those of antibody-F23-32K. […] The sequences of the anti-OX40 antibody (antibody M) are shown in Table 12; wherein, the expression cells used for the antibodies above (including antibody M) are CHO-S cells, and the method for preparing the antibody M-KF is as follows: the antibody M was identical to the antibody M-KF in terms of amino acid sequence and was expressed by the CHO cell line in which the fut8 gene was knocked out (the content of fucose in antibody M-KF was about 0%).
Turning to B1, the Kd is 0.653 nM; the koff (in general, the rate constant with which the complex falls apart) came out at 0.000321 s⁻¹; the kon – broadly, a measure of how fast the partners come together – was found to be 491000 M⁻¹ s⁻¹.
For B2, the Kd was determined as 4.54 nM, the koff stood at 0.00133 s⁻¹ and the kon was 292000 M⁻¹ s⁻¹.
The molecule B3 came in with a Kd of 5.01 nM, a koff of 0.00139 s⁻¹ and a kon of 278000 M⁻¹ s⁻¹.
Turning to B4, the Kd came out at 0.565 nM, the koff came out at 0.000243 s⁻¹ and the kon is 431000 M⁻¹ s⁻¹.
As for B5, the Kd is 1.93 nM, the off-rate (koff) is 0.000714 s⁻¹ and the kon turned out to be 371000 M⁻¹ s⁻¹.
Molecule B6 showed a Kd of 0.77 nM, a koff of 0.000348 s⁻¹ and an association rate constant (kon) of 452000 M⁻¹ s⁻¹.
In the same order, the values of B7 are 0.266 nM, 0.000119 s⁻¹ and 448000 M⁻¹ s⁻¹.

Another test has as its target T2, hOX40-FC. The test can be described thus: BLI (ForteBio), biotinylated antibody on SA sensor, OX40-Fc 50 nM bivalent, 1:1 model. As to the method:
The ForteBio affinity assay was conducted according to the existing conventional method (Estep, P et al., MAbs, 2013, 5(2): 270-8). The brief process is as follows: the sensor was equilibrated offline in an assay buffer (such as PBS) for 20 min and then subjected to online test for 60 s to establish a signal baseline. The purified antibodies obtained as described above were each loaded online onto a corresponding sensor (ForteBio), and finally the ForteBio affinity assay was conducted. The biotinylated candidate antibodies were adsorbed with the SA sensor, and binding and dissociation of hOX40-FC were each detected for about 5 min. The results are shown in Table 4, and N.D indicates not detected in Table 4. Finally, kinetic analysis was performed for all by using a 1:1 binding model.
The molecule B8 came in with a Kd of less than 0.1 nM.
As to B9, the Kd is 3 nM.
The molecule B10 came in with a Kd of 9 nM.
Still for that read-out and setting: the figure for B11 is 2 nM.
